# Experimental data as given in patent publication US20230383295A1.
# Target: integrin receptors
# Assay: cell-based or functional assay
substance,measurement,value
vitronectin with RGD domain mutated to RGE (knock-in mouse line Vtn^RGE/RGE) (from UniProt P29788 20-478) (ligand),HRP-filled vesicles in endothelial cells of Vtn^RGE mice compared to wildtype animals,2 fold
